The target of the data set is T1, Dpo4 (Y-family DNA polymerase) (Sulfolobus solfataricus, UniProt Q97W02 1-352).
T1 sequence: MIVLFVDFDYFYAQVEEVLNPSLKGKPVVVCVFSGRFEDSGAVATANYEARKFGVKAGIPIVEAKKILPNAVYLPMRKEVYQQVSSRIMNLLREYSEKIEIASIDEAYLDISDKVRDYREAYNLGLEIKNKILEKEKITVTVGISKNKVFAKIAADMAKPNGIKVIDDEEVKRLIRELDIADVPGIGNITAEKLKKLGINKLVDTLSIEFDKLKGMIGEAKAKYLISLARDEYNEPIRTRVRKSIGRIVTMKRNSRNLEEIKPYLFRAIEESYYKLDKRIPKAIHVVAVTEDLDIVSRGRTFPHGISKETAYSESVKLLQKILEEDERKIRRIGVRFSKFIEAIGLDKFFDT
As to the kind of experiment: X-ray crystallography.

B1: 14/18-mer primer/template DNA (dsDNA)
DNA 1: GGGGGAAGGATTCC
DNA 2: TCATGGAATCCTTCCCCC
As for B1, the binding result is “binds”.

For the origin of these results see article PMC3563936.
